The assay deals with hamster ACE2 ectodomain with human IgG1 Fc tag (hamster). The experiment in a line: BLI. On the technique in general: BLI is a label-free optical method that tracks binding on a fibre tip over time.

Our source for the kon values is PMC8828469.

By kon is commonly meant the second-order rate constant of association. The low end stands for slow association, the high end for fast association.

Where “and” joins values, the source holds several entries; their conditions need not be identical. Equal values may be shown once.

On to “SARS-CoV-2 spike protein of Alpha (B.1.1.7), S^Alpha, recombinant trimeric ectodomain (from UniProt P0DTC2 14-1208) (domain or fragment)”, for which the kon was 111000 M⁻¹ s⁻¹ and 90700 M⁻¹ s⁻¹ and 98000 M⁻¹ s⁻¹.
